The values that follow are results of earlier work, collected in paper PMC3334866.

The target of the data set is Vinculin D1 (UniProt P18206).
UniProt P18206, sequence (P18206 1-258): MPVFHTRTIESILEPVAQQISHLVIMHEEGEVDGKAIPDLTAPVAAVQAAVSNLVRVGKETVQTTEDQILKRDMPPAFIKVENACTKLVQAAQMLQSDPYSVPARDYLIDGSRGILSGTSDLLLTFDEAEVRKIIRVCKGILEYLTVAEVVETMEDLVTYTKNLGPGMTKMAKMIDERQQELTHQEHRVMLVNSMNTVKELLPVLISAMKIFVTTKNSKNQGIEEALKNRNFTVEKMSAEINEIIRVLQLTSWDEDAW

With IpaA peptide (from UniProt P18010), the dissociation constant (Kd) is less than 1 nM.
